In patent US7556939B2, “Identification and characterization of racemases, definition of protein signatures, and a test for detecting D-amino acid and for screening molecules capable of inhibiting the activity of racemase, especially proline racemase” (Institut Pasteur, priority 2003, dated 2009):
Values joined by “and” are separate entries in the source; they are usually repeats but may differ in a detail not shown here. Equal entries are not always repeated.

Legend:
[1] = target: T1, TcPRAC (Trypanosoma cruzi, UniProt Q4DA80); conditions: cited from earlier work
T1 construct: made in house

[2] = system: TcPRAC enzyme isoforms; conditions: span over the enzyme isoforms
Procedure: (§1) Optical rotation was measured every 5 sec during 10 min and every 5 min to 1 hour. […] Calculations were done using the Kaleïdagraph program. […] Graphic representation and linear curve regression allowed the determination of Ki as [PAC]/[(slope with PAC/slope without PAC)−1]. All reagents were purchased from Sigma.

[3] = target: T2, CsPR (Acetoanaerobium sticklandii, UniProt E3PTZ4); conditions: reported for the proline racemase of C. sticklandii; cited from earlier work
T2 sequence (E3PTZ4 1-335): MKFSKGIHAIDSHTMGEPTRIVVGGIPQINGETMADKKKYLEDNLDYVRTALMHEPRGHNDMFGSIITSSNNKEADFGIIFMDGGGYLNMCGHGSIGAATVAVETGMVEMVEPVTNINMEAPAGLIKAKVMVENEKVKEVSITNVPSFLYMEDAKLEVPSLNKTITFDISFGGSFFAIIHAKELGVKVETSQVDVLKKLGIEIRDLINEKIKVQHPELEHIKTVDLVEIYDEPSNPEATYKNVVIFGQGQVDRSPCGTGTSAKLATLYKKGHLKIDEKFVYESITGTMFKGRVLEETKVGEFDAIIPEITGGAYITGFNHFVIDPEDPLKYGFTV

[4] = target: T3, D-AAO (Sus scrofa, UniProt P00371); experiment: D-AAO/HRP reaction on D-proline in presence of PAC or L-proline; type: biochemical, swine
T3 construct: purchased Sigma A-5222; host or cells: swine kidney

[5] = system: B cell; conditions: cited from earlier work
[6] = target: T4, rTcPRACA (Trypanosoma cruzi, UniProt Q4DA80); experiment: Kinetic and inhibition assays of L-proline racemization, polarimetric; type: biochemical
T4 construct: resulting TcPRACA* fragment encoding for the mature proline racemase was purified and cloned; His6 (C); made in house; host or cells: E. coli BL21 (DE3)
Procedure: (§2) The progress of racemization reaction was monitored polarimetrically, as previously described (13). […] Values obtained were confirmed by using the Kaleïdagraph® program and Michaelis-Menten equation. […] C.
as §1

[7] = target: rTcPRACB (Trypanosoma cruzi, UniProt Q868H8); experiment: as above; type: biochemical
Procedure: as §2, §1

[8] = system: non-infected monkey cell cultures
[9] = target: T1, TcPRAC; experiment: D-AAO/HRP microplate test of racemisation inhibition; type: biochemical; conditions: concentration giving 50% inhibition of racemisation
Procedure: (1) The volumes are indicated for a single well, but duplicates are mandatory. Leave enough raws of the microplate empty for standard and controls to be used in further steps. Distribute the following volumes per well reactions: • a) without inhibitor (Vol=QS 81 μl)
A range of concentrations between 5 mM and 1 mM can be planned for the inhibitor. It should be diluted in sodium acetate buffer 0.2 M pH 6.0.
• (2) Cover the microplate with an adhesive coverlid and leave for […] at 37° C. • (3) At the end of racemisation, 5.5 μl of 0.235M Pop are added in each reaction well of the microplate in order to shift pH from pH6.0 to pH 8.3.
It is used for assessing the amount of D-Proline formed after racemization. The standard range is made in microtubes, as follows:
• (3) Prepare a mixture containing the enzymes (D-AAO/HRP Mix), as follows: The amounts are given for one well, provided that the final volume will be 100 μl with the racemase products or the substrate:
This mixture is kept in the ice until use. • (4) The quantitation reaction starts when 13 μl of D-AAO/HRP mix is added to the reaction well. • (5) The microplate is covered with an adhesive coverlid and it is left in the dark at 37° C. between […] and 2 hours. The reaction can be monitored by eye whenever a color gradient matches the D-amino acid concentration of the standard dilutions. • (6) The microplate is read with a microplate spectrophotometer using a filter of at 490 nm.

[10] = target: T1, TcPRAC; experiment: Racemisation inhibition, detection with polarimeter; type: biochemical
Procedure: (§3) The reaction was stopped by incubating for 10 min at 80° C. and freezing. Water (1 ml) was then added, and the optical rotation was measured in a polarimeter 241 MC (Perkin Elmer, Montigny le Bretonneux, France) at a wavelength of 365 nm, in a cell with a path length of 10 cm, at a precision of 0.001 degree. […] All reagents were purchased from Sigma.

[11] = Racemization assays, polarimetric; type: biochemical; conditions: for % racemization / Optical rotation: 5 μg protein, 40 mM L-proline, pH 6.0, 37° C.
Procedure: as §3
Optical rotation was measured and % of racemization was determined as described in Example 5.
Optical rotation was measured at different times and % of racemization was determined as described in Example 5.

[12] = Stability of recombinant proline racemases under different storage conditions; type: physicochemical
Procedure: After purification on nickel-nitrilotriacetic acid agarose column, recombinant proteins were kept for 10 days in nickel column buffer (20 mM Tris/500 mM NaCl/500 mM imidazol, pH 8.0) at room temperature (RT) or at +4° C., or either diluted in 50% glycerol and maintained at −20° C. (Gly/−20° C.) or in optimum pH buffer (NaOAc, pH 6.0) at 4° C. Recombinant enzymes were precipitated in (NH4)2SO4 and kept in solution at 4° C. or pellet dried at −20° C. Racemase assays were performed for 30 min at 37° C.

[13] = system: Trypanosoma cruzi; experiment: Immunization of mice and infectious challenge with live Trypanosoma cruzi; type: in vivo; conditions: mice, sub-mitogenic doses

T3 sequence (P00371 whole entry): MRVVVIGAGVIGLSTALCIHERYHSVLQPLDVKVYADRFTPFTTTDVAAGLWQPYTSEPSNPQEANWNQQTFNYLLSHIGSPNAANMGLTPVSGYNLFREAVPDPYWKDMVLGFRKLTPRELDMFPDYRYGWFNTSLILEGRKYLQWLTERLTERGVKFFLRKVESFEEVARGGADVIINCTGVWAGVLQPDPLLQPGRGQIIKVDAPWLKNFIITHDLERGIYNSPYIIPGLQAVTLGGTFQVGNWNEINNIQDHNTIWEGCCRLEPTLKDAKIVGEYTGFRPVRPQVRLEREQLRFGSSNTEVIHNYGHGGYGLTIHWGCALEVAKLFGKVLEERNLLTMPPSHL
Chain of rTcPRACB (Q868H8 whole entry): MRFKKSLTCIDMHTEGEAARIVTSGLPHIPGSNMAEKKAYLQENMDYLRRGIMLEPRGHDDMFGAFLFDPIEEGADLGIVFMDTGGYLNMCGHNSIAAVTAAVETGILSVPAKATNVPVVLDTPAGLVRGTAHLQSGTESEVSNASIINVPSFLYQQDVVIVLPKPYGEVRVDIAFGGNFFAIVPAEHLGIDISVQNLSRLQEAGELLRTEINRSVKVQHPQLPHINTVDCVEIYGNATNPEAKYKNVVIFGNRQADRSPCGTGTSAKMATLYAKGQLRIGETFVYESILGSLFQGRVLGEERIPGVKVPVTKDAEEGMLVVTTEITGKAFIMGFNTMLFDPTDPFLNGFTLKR

Molecule: O=C(O)CI [iodoacetate]
- TcPRAC enzymatic activity after alkylation [1]: abolished

Molecule: NC(=O)CI [iodoacetamide]
- TcPRAC enzymatic activity after alkylation [1]: abolished

Molecule: O=C(O)[C@@H]1CCCN1 [L-proline]
- Km [2]: 29 to 75 mM
- Km [3]: 2.3 mM
- effect on D-amino-oxidase activity ([4]; equimolar mixture of D- and L-Proline versus D-Proline alone): Inhibits

Molecule: O=C(O)c1ccc[nH]1 [PAC, pyrrole-2-carboxylic acid]
- effect of TcPRAC inhibition on TcPRAC B cell mitogenic ability [5]: total loss
- Ki [6]: 5.7 µM
- Ki [7]: 3.6 µM
- interference with cellular growth [8]: do not interfere with cellular growth
- IC50 ([9]; 10 mM L-Proline): 45 µM and 50 µM
- IC50 ([9]; 20 mM L-Proline): 170 µM
- IC50 ([9]; 40 mM L-Proline): 220 µM
- influence on DAAO/HRP reaction ([4]; D-Proline 0.1 mM to 40 mM, OD 490 nm): does not influence
- IC50 [10]: 1000 µM

B1: rTcPRACA: recombinant C-terminal His6-tagged T. cruzi proline racemase, 45 kDa secreted isoform, produced in E. coli (protein)
chain: GQEKLLFDQKYKIIKGEKKEKKKNQRANRREHQQKREIMRFKKSFTCIDMHTEGEAARIVTSGLPHIPGSNMAEKKAYLQENMDYLRRGIMLEPRGHDDMFGAFLFDPIEEGADLGMVFMDTGGYLNMCGHNSIAAVTAAVETGIVSVPAKATNVPVVLDTPAGLVRGTAHLQSGTESEVSNASIINVPSFLYQQDVVVVLPKPYGEVRVDIAFGGNFFAIVPAEQLGIDISVQNLSRLQEAGELLRTEINRSVKVQHPQLPHINTVDCVEIYGPPTNPEANYKNVVIFGNRQADRSPCGTGTSAKMATLYAKGQLRIGETFVYESILGSLFQGRVLGEERIPGVKVPVTKDAEEGMLVVTAEITGKAFIMGFNTMLFDPTDPFKNGFTLKQ
modifications: left off: small tags and cut ends
notes: recombinant C-terminal His6-tagged T. cruzi proline racemase, 45 kDa secreted isoform, produced in E. coli
- temperature of maximal enzyme activity [11]: 37 °C
- % racemization ([11]; 0 min): 0%
- Optical rotation ([11]; 0 min): −0.385
- enzyme activity after heating ([11]; 5 min at 80° C.): abolished
- % racemization ([11]; 10 min): 22%
- Optical rotation ([11]; 10 min): −0.300
- % racemization ([11]; 30 min): 58%
- Optical rotation ([11]; 30 min): −0.162
- % racemization ([11]; 60 min): 77%
- Optical rotation ([11]; 60 min): −0.088
- % of preservation of proline racemase activity ([12]; 10 days, 50% glycerol, −20° C. (Gly/−20° C.)): 62.9%
- % of preservation of proline racemase activity ([12]; 10 days, NaOAc pH 6, 4° C.): 31.0%
- % of preservation of proline racemase activity ([12]; 10 days, column buffer pH 8.0, +4° C.): 65% and 66.5%
- % of preservation of proline racemase activity ([12]; 10 days, column buffer pH 8.0, RT): 16.0%
- loss of activity ([12]; 10 days, room temperature, 0.5 M imidazol buffer pH 8.0): 84%
- % of preservation of proline racemase activity ([12]; (NH4)2SO4 precipitated, in solution, 4° C.): 53.9%
- % of preservation of proline racemase activity ([12]; (NH4)2SO4 precipitated, pellet dried, −20° C.): 100.0%
- % of preservation of proline racemase activity ([12]; CTRL, freshly purified proteins): 100.0%

B2: TcPRAC: Trypanosoma cruzi proline racemase, B cell mitogen, used for immunization of mice (protein)
chain: B1 chain
modifications: left off: small tags and cut ends
notes: Trypanosoma cruzi proline racemase, B cell mitogen, used for immunization of mice
- specific antibody responses directed to TcPRAC [13]: high levels of specific antibody responses
- immunoprotection against infectious challenge ([13]; challenge with live Trypanosoma cruzi): high levels of immunoprotection
